The supplement of paper PMC10567573

B1: TRIM39 (parent)
chain: ERDFPCPVCRKTSRYRSLRPNRQL

Variants of: B1
Test: protein stability index of a GFP-peptide fusion (GPS, HEK-293T) (PSI 1-6); higher = more stable
Conditions: c terminus: a fixed tail appended
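Further: lentivirally expressed fusions sorted by FACS into six bins by GFP to DsRed ratio, PSI derived from sequencing read proportions per bin multiplied by bin number.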

Protein stability index of substitutions, site by site:
T12: D 1.37; F 2.88; G 2.05; H 1.55; I 1.71; K 2.64; L 2.13; M 2.36; P 1.55; Q 1.6; S 2.17; V 2.02; W 2.44; Y 1.7
S13: A 2.01; C 2.82; D 2.56; E 2.21; F 2.46; G 2.52; H 2.82; I 2.4; K 1.77; L 2.4; M 2.61; N 2.12; P 2.74; Q 2.1; R 2.49; V 2.1; W 2.39
R14: A 2.46; C 2.85; D 2.08; E 3.71; F 1.96; G 2.13; H 2.15; I 2.28; K 1.9; L 2.09; M 1.92; N 1.67; P 1.82; Q 2; S 1.66; T 1.58; V 1.39; Y 2.42
Y15: C 2.24; D 3.02; E 2.19; F 2.31; G 1.83; H 2.68; I 2.24; K 3.33; M 1.54; N 2.31; P 2.29; Q 2.52; R 2.65; T 1.9; V 1.64; W 1.95
R16: A 1.43; C 2.47; E 2.54; F 2.57; G 1.29; H 2.29; I 1.24; K 2.14; L 1.53; M 1.03; N 2.23; P 2.1; Q 1.91; S 2.86; V 2.04; Y 1.74
S17: C 1.71; D 1.85; E 2.13; G 2.15; H 1.89; K 2.25; L 1.69; N 2.22; P 2.71; Q 1.86; R 2.31; T 1.45; V 2.24; W 2.31; Y 1.44
L18: A 2.32; C 2.24; D 2.71; E 2.1; F 2.39; G 2.34; H 2.68; I 1.81; M 1.82; N 2.41; P 2.89; Q 2.39; R 2.87; S 2.42; T 3.13; V 2.49; W 2.26; Y 1.96
R19: A 1.63; D 1.54; E 1.59; G 1.89; H 2.08; I 2.1; K 1.82; L 2; M 1.29; N 1.78; P 1.98; Q 1.91; S 2.58; T 1.75; V 1.85; W 2.1; Y 2.12
P20: A 2.22; C 2.44; D 2.06; E 2.04; F 3.1; H 1.87; I 1.6; K 2.58; L 1.75; M 3.02; N 1.77; Q 2.17; R 4.09; S 1.76; T 2.13; V 2.07; W 1.84; Y 1.84
N21: D 2.12; E 1.71; F 2.6; H 1.77; I 1.85; K 2.78; M 2.74; P 2.12; Q 1.62; R 2.96; S 1.91; V 1.9; W 2.53; Y 2.52
R22: A 3.44; D 2.37; E 2.4; F 1.79
